Assay results published in the supplement of paper PMC9732359.
± gives the uncertainty stated by the source.

Experiment: protein stability index of a GFP-peptide fusion (yeast GPS) (PSI 1-4); higher = more stable; sorted into four equal gates, so the index is relative within each strain
Procedure, shortened: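 Peptides tiling yeast proteins in 17-residue segments were fused downstream of GFP, with Cherry expressed from the same plasmid. As a pooled library in yeast, mid-log cultures grown in leucine-free medium were sorted into four equal gates by GFP/Cherry fluorescence ratio. Gate plasmids were PCR-amplified and Illumina-sequenced, and barcodes linked reads to strains. Each peptide received a protein stability index equal to the sum of each gate's read frequency times its gate number.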

Work on NPLIELTPIQKKIMDET [ITC1] yielded a protein stability index (doa10∆) of 2.67 ± 0.087, a protein stability index (pdr5∆) of 3.08 ± 0.08 and a protein stability index (san1∆) of 3.24 ± 0.057. The protein stability index (ubr1∆) was 3.07 ± 0.076.
Sequence SFLFSAIPLQQVLSQSA [SWI1] has a protein stability index (doa10∆) of 1.58 ± 0.054, a protein stability index (pdr5∆) of 1.43 ± 0.064 and a protein stability index (san1∆) of 1.28 ± 0.091. For the same sequence, the protein stability index (ubr1∆) was 1.39 ± 0.034.
Work on SPFGAYGEAPTSPGFGV [RPO21] yielded a protein stability index (doa10∆) of 2.87 ± 0.086, a protein stability index (pdr5∆) of 3.12 ± 0.052 and a protein stability index (san1∆) of 2.98 ± 0.076. For the same sequence, the protein stability index (ubr1∆) was 3.17 ± 0.034.
In the case of IISRLNADFQKPWFATV [FAS1], the protein stability index (doa10∆) is reported as 2.27 ± 0.066, the protein stability index (pdr5∆) is reported as 2.4 ± 0.063 and the protein stability index (san1∆) is reported as 2.1 ± 0.071. It also gave a protein stability index (ubr1∆) of 2.96 ± 0.069.
Work on TKNLSILTSKVNAIKNE [DSN1] yielded a protein stability index (doa10∆) of 1.66 ± 0.076, a protein stability index (pdr5∆) of 2.13 ± 0.056 and a protein stability index (san1∆) of 2.39 ± 0.11. It also gave a protein stability index (ubr1∆) of 1.69 ± 0.06.
VQEQLSKNRIIVEADEK [RET1] gave a protein stability index (doa10∆) of 1.52 ± 0.088, a protein stability index (pdr5∆) of 1.37 ± 0.052 and a protein stability index (san1∆) of 1.65 ± 0.14. For the same sequence, the protein stability index (ubr1∆) was 1.4 ± 0.062.
KLSKVQLYEDLCRYEDT [MED4] gave a protein stability index (doa10∆) of 2.88 ± 0.069, a protein stability index (pdr5∆) of 3.29 ± 0.12 and a protein stability index (san1∆) of 3.32 ± 0.11. It also gave a protein stability index (ubr1∆) of 3.21 ± 0.071.
Work on QYEHLIKGIREYEEWQK [YDL116W/NUP84] yielded a protein stability index (doa10∆) of 3.11 ± 0.1, a protein stability index (pdr5∆) of 2.99 ± 0.079 and a protein stability index (san1∆) of 2.88 ± 0.13. The protein stability index (ubr1∆) was 2.62 ± 0.083.
In the case of TLKDYQIKGLQWMVSLF [SNF2], the protein stability index (doa10∆) is reported as 3.01 ± 0.1, the protein stability index (pdr5∆) is reported as 2.54 ± 0.11 and the protein stability index (san1∆) is reported as 3.22 ± 0.078. It also gave a protein stability index (ubr1∆) of 2.76 ± 0.1.
MNFNTPQQNKTPFSFGT [YJL041W/NSP1] gave a protein stability index (doa10∆) of 3.15 ± 0.057, a protein stability index (pdr5∆) of 3 ± 0.051 and a protein stability index (san1∆) of 2.92 ± 0.061. The protein stability index (ubr1∆) was 2.95 ± 0.05.
For PTLFDLAFNYITYDKQE [SRP68], the protein stability index (doa10∆) was 2.39 ± 0.064, the protein stability index (pdr5∆) was 1.72 ± 0.064 and the protein stability index (san1∆) was 1.77 ± 0.081. For the same sequence, the protein stability index (ubr1∆) was 1.54 ± 0.059.
KVNPNIMNMIENVEKKE [SMC2] showed a protein stability index (doa10∆) of 2.46 ± 0.13, a protein stability index (pdr5∆) of 2.71 ± 0.12 and a protein stability index (san1∆) of 2.36 ± 0.13. The protein stability index (ubr1∆) was 2.5 ± 0.064.
DDISRQVARTNLDGTKA [ROX3] gave a protein stability index (doa10∆) of 3.12 ± 0.096, a protein stability index (pdr5∆) of 2.88 ± 0.091 and a protein stability index (san1∆) of 3.09 ± 0.087. For the same sequence, the protein stability index (ubr1∆) was 3.11 ± 0.071.
With TRISSQFEKSRKVSGPR [RET1] the protein stability index (doa10∆) was 2.94 ± 0.27, the protein stability index (pdr5∆) was 2.92 ± 0.18 and the protein stability index (san1∆) was 2.92 ± 0.098. The protein stability index (ubr1∆) was 2.75 ± 0.2.
Sequence LDYQIGNSESKVEKGVN [LIN1] has a protein stability index (doa10∆) of 3.12 ± 0.12, a protein stability index (pdr5∆) of 3.4 ± 0.18 and a protein stability index (san1∆) of 2.92 ± 0.15. The protein stability index (ubr1∆) was 3.38 ± 0.13.
With SVSGSPRPSYSSRPNVN [YMR129W/POM152] the protein stability index (doa10∆) was 2.8 ± 0.091, the protein stability index (pdr5∆) was 2.72 ± 0.085 and the protein stability index (san1∆) was 2.45 ± 0.066. The protein stability index (ubr1∆) was 2.77 ± 0.081.
In the case of MGQIATFIYFAYFLIIV [COB], the protein stability index (doa10∆) is reported as 1.63 ± 0.053, the protein stability index (pdr5∆) is reported as 1.29 ± 0.046 and the protein stability index (san1∆) is reported as 1.16 ± 0.098. For the same sequence, the protein stability index (ubr1∆) was 1.11 ± 0.026.
In the case of QLQKILESLKPIDDTMT [MTW1], the protein stability index (doa10∆) is reported as 2.73 ± 0.072, the protein stability index (pdr5∆) is reported as 2.86 ± 0.058 and the protein stability index (san1∆) is reported as 2.69 ± 0.052. The protein stability index (ubr1∆) was 2.59 ± 0.042.
Work on AGLDEDGKGAVYSFDPV [PRE7] yielded a protein stability index (doa10∆) of 2.58 ± 0.29, a protein stability index (pdr5∆) of 3 ± 0.2 and a protein stability index (ubr1∆) of 2.87 ± 0.15.
Sequence LGTVQREIESLIAEETN [SMC3] has a protein stability index (doa10∆) of 2.79 ± 0.18, a protein stability index (pdr5∆) of 2.83 ± 0.082 and a protein stability index (san1∆) of 3.01 ± 0.12. The protein stability index (ubr1∆) was 2.91 ± 0.15.
NANTVFAGSNNQPHQSQ [YOR098C/NUP1] showed a protein stability index (doa10∆) of 2.85 ± 0.1, a protein stability index (pdr5∆) of 3.15 ± 0.08 and a protein stability index (san1∆) of 2.89 ± 0.06. It also gave a protein stability index (ubr1∆) of 3.07 ± 0.046.
Work on DDSSSDNDSLTDLESLS [SIR4] yielded a protein stability index (doa10∆) of 3.15 ± 0.058, a protein stability index (pdr5∆) of 3.28 ± 0.043 and a protein stability index (san1∆) of 3.09 ± 0.044. The protein stability index (ubr1∆) was 2.95 ± 0.042.
Sequence DNHSGDATANATANATA [DSN1] has a protein stability index (doa10∆) of 3.22 ± 0.12, a protein stability index (pdr5∆) of 3.08 ± 0.064 and a protein stability index (san1∆) of 3.32 ± 0.089. It also gave a protein stability index (ubr1∆) of 3.13 ± 0.071.
Sequence IIDEIKCIPKKGTVFQF [POP4] has a protein stability index (doa10∆) of 1.6 ± 0.13, a protein stability index (pdr5∆) of 1.56 ± 0.074 and a protein stability index (san1∆) of 1.86 ± 0.28. For the same sequence, the protein stability index (ubr1∆) was 1.3 ± 0.048.
With SLDDNSTSLEKQINSIK [YJL041W/NSP1] the protein stability index (doa10∆) was 2.78 ± 0.079, the protein stability index (pdr5∆) was 3.08 ± 0.065 and the protein stability index (san1∆) was 2.97 ± 0.045. It also gave a protein stability index (ubr1∆) of 2.96 ± 0.048.
